The data set in a line: soluble on expression in E. coli; label from the status in PepcDB or PDB records.
Take “SPVSKCPKKSESLWKGWDRKAQRNGLRSQVYAVNGDYYVGEWEDNVKHGKGTQVWKKKGAIYEGDWKFGKRDGYGTLSLPDQQTGKCRRVYSGWWKGDKKSGYGIQFFGPKEYYEGDWCGSQRSGWGRMYYSNGDIYEGQWENDKPNGEGMLRLKNGNRYEGCWERGMKNGAGRFFHLDHGQLFEGFWVDNMAKCGTMIDFGRDEAPEPTQFPIPEVKILDPDGVLAEALAMFRKTEEGD”: the “soluble on expression in E. coli” value is “soluble”.
Under “MSRNQNHEEYQDDTRPLSIEEQRARLRQLIIMGKERGYITYSEINDALPDDMSDADQIDNIVSMISGLGIQVTEHAPDAEDILLSDNAAVTDDDAVEEAEAALSSADSEFGRTTDPVRMYMREMGQVDLLTREDEIIIAKKIENALKNMVQAISACPGSIAEILELIEKIRKDEIRVDEVVEAIIDPNEVLLNELGLGHLETTAPEKPSNDNSDENEDDEESEEDADEISAANLAELKQKVIGHFAQIEKDYKKMIGRLEKHHSRHKDYLAYRDAIANKLLEVRFATRQIDSLSSSLRGKVENIRKLEREIRDICLDRVHMERDYFIQNFLPEITNLEWIEEEIAKGRVWSDALDRFRHAILEKQTELADMEKETRISIEELKEINKNMVSSEKETAAAKQEMIQANLRLVISIAKKYTNRGLQFLDLIQEGNIGLMKAVDKFEYRRGYKFSTYATWWIRQAITRSIADQARTIRIPVHMIETINKMNRISRQHLQETGEEPDSAKLAELMQMPEDKIRKIMKIAKEPISMETPIGDDDDSHLGDFIEDANNVAPADAAMYTSLHEVTKEILESLTPREAKVLRMRFGIDMNTDHTLEEVGRQFDVTRERIRQIEAKALRKLRHPTRSDRLRSFLDSEDSKL” stands “soluble”.
Under “MSLKQAIFVMMDQYADWEGAHLSSQLNQMTDWTVKTASNQPEVTSIGGWTTRVDYQISELNPEMTLLVLIGGNAWQHDDPRLTALIQQCLQRKVIVGAICGAVDYLARNGLLTGYRHTGNAQFSWQSFPKYQNPTDFELQQVVVDRQLVTANGTAALSFTSAVLKASGQLTIAAKQALDLQQLGYYDNTETHLNEGHHHHHH” stands “not soluble”; under “MKPAKVSLLRRLLHSLKHVDCNIAKRFPSTIKIVKLLMIFMVFTPISSIYAEDVYQNFEELKNNEDPSDYGVVTKETGSPVLVLAIHGGGIEGGTSEVARELSKEYSMYLFEGLKSAGNSVLHITSTHFDEPRALKMTGNHEYVISLHGYAEEDQQIEVGGTDRVRAADLVEKLQHAGFPAVLLNMDHPHAGVSPNNIANKSKTGLSIQIEMSTGFRKSLFGIFSLKSRAVTQNERFYEFTEVMFRFLKNSYLEHHHHHH”, “not soluble”; under “MQQIFFKDPILGEVLFDQQTKWMYELVETEAFRRLRNIKQLGINFHFYPGGVHT”, “not soluble”.
Under “MSLLDFEKPLFEIRNKIESLKESQDKNDVDLQEEIDMLEASLERETKKIYTNLKPWDRVQIARLQERPTTLDYIPYIFDSFMELHGDRNFRDDPAMIGGIGFLNGRAVTVIGQQRGKDTKDNIYRNFGMAHPEGYRKALRLMKQAEKFNRPIFTFIDTKGAYPGKAAEERGQSESIATNLIEMASLKVPVIAIVIGEGGSGGALGIGIANKVLMLENSTYSVISPEGAAALLWKDSNLAKIAAETMKITAHDIKQLGIIDDVISEPLGGAHKDVEQQALAIKSAFVAQLDSLESLSRDEIANDRFEKFRNIGSYIEEGHHHHHH” stands “not soluble”; under “GSITQPTAINVIFPDPALANAIKIAAGKSNVTDTVTQADLDGITTLSAFGTGVTTIEGVQYLNNLIGLELKDNQITDLAPLKNLTKITELELSGNPLKNVSAIAGLQSIKTLDLTSTQITDVTPLAGLSNLQVLYLDLNQITNISPLAGLTNLQYLSIGNAQVSDLTPLANLSKLTTLKADDNKISDISPLASLPNLIEVHLKNNQISDVSPLANTSNLFIVTLTNQTITNQPVFYNNNLVVPNVVKGPSGAPIAPATISDNGTYASPNLTWNLTSFINNVSYTFNQSVTFKNTTVPFSGTVTQPLTE”, “soluble”.
As for “MASSNLIKQLQERGLVAQVTDEEALAERLAQGPIALYCGFDPTADSLHLGHLVPLLCLKRFQQAGHKPVALVGGATGLIGDPSFKAAERKLNTEETVQEWVDKIRKQVAPFLDFDCGENSAIAANNYDWFGNMNVLTFLRDIGKHFSVNQMINKEAVKQRLNREDQGISFTEFSYNLLQGYDFACLNKQYGVVLQIGGSDQWGNITSGIDLTRRLHQNQVFGLTVPLITKADGTKFGKTEGGAVWLDPKKTSPYKFYQFWINTADADVYRFLKFFTFMSIEEINALEEEDKNSGKAPRAQYVLAEQVTRLVHGEEGLQAAKRITECLFSGSLSALSEADFEQLAQDGVPMVEMEKGADLMQALVDSELQPSRGQARKTIASNAITINGEKQSDPEYFFKEEDRLFGRFTLLRRGKKNYCLICWK”, the “soluble on expression in E. coli” value is recorded as “soluble”.
Under “MNTDELEHRRFDDLFSLVADPGFLLVAWDLVRGNKGASAAGVDGSTASSIALWVGVEKFLDMLRSQIKDRSFQPMPVRERMIPKAGGKLRRLGIATITDRVVQASLKLARFGEAAPGKRTGRKTGTAPRADFTPAIGCAFRYSPVLEHHHHHH” stands “not soluble”.
Under “MGHHHHHHSHMNQSRSRSDGGSEETLPQDHNHHENERRWQQERLHREEAYYQFINELNDEDYRLMRDHNLLGTPGEITSEELQQRLDGVKEQLASQPDLRDGTNYRDSEVPRESSHEDSLLEWLNTFRRTGNATRSGQNGNQTWRAALPDTS” stands “not soluble”; under “MAHHHHHHMPLVKAETDASFVAEVAESVGGACARMNDHISVMIEEYLRRRTQQVRDDVKQELDAVRVHLERKIADAEAAKAVEEERYHKKKVQVLQAAVELQKMHANLHLQRLFHTWRRCADVRQERRRLAEEAHIHIGRLSLFHAYMQWRLFAAALRQKRLEAKEAHKRDCREQELLGQIEGYQRQLEGERAKDASLNEKLKEAFVRGMCALNREAVHVLHGSEENQDADVEAIAEILSRESHSRHRSVTPGHMDSSTLSNVHGHGVCPVHHIDAKGSFYHPCFSPGYCEYDRHSGSRAPVSSAVPPSASGPFVVSADPKSARSIDSSPPVPFRHLSKSSTTRWRM”, “not soluble”.
On to “MGSDKIHHHHHHMETREQAKFFHLDEFSGLSLLQASYHRQRFARHVHETFCIGVIEEGVQRFYRTGGEHVAPKGDIILVNADEIHTGSPGVETGWAYRAIYPHPDLMLLLSRDLINANGTVPWFPEAVVHDPGLAEQFRLVFNLLTRDGDRLLKESLLLSSIASLVMRHGRTPAFARELPSVGQPLRIIKDLIASCPEEDYSLTQLAEMAHLSPWHFLRQFKKQVGLPPHAWLIQARLKRARQLLRRGLPIPVVAARCRFSDQSHFNRHFKSSFGITPGEFIRTLPSLSA”, for which the “soluble on expression in E. coli” value is recorded as “not soluble”.
In the case of “GSHMGHIIDISKWNGDINWSIAKQHIDFIIARVQDGSNYVDPLYKGYVQAMKQHGIPFGNYAFCRFVSIADAKKEAQDFWNRGDKSATVWVADVEVKTMNDMRAGTQAFIDELYRLGAKKVGLYVGHHMYTPFGMANVKSDFVWIPRYGGNKPAYPCDIWQYTETGNVPGIGKCDLNSLIGNKSLSWFTESA”, the “soluble on expression in E. coli” value is recorded as “soluble”.
Consider “MSLEVIKHDGPGRLGVIRLEPPVQTPALAGVDFTLSPFNSFFYPKDYKEYDFNLAPAIPLSYYTPDEIIKKAVKRLWEVDYSKFNAFYFPALKRTKHYEELFKIIEENDFDAIYIGNSKSMIKDYRGFVFTMRELREKFPNAVLITDLEPFFYPLAVYLGIDAFDIRSLKIYSYEGLGFTQFSPIIWDEPKEDPVEYAKKIIRLIRIAIHEGKLRYLVENFLPTSMNAGILRIADRENIEYLEKYTPVDDKTVVFISDYSMTRPEVYRWAKRVRERFEPPKDIELLLILPCSAKKPYSRSRSHTLYRSAVKEALGEKMHRVHELIVTSPYGVVPREWEWIAKYDIVVTGHWSEREVRLAGELLADVLEKYPDIPIIAHVEGGYREAVKLAMELSGRDVIFTAKGNSTTSRESLANLTKTLKEFDVRDVDKEYRRYRFYENIRKIFDFYFGLNAGYAVLPERAQVVGSKMLRLIVDNQQTGTFQEGVISVTPWGMQRIYDELHSYWVEIDFDVRGDIFAAGVGSADEKIRPNDWVGVVRDGKVVAVGRAVLSGEEMVKAKRGVAVKVKKKAKEGHHHHHH”, for which the “soluble on expression in E. coli” value is given as “soluble”.
The value for “MALAPHAVHRLYEYRKSISTKPFGARGKKLIRCPLCLLGEQFCTCSLRKQLTTQASFLLIMYNDEVLKPTNSGRLIADLIPDTHAFLWSRTDPAPELLALLSSDHYQPFLVFPAQYADQGQTVLSQVPMATLAKGKRPLLIMLDGSWREAIKMFRKSPYLQGLPILSFDPDTLATYALRKGSHDFQLGTAEVASLALAAMGEEANGKALTAWFDLFVESSLLGRNRRCREDILPISDFTNAFEVAYTAATP” was “not soluble”.
As to “MGSDKIHHHHHHMATANKNLKATWVATVTNLDWPSVSSVAITDEAARVSKQKEELTGILDEIVAMKMNAVIFQVVPCADAFYASDLLPWSKYLTGTLGKNPGFDPLAYAIEQAHARNIELHAWVNPYRVSMNASDATIEELNNSSSDSPASVFKTHPEWTGTAANRFVLNPGIPEVQTWVSNIVEEIVTKYDVDAIQFDDYFYYETASSLLQDDATYQKYNTNFTTKADWRRNNTYSLVDTCHKKIAAVKANVLFGVSPAGVWRNKSDDPLGSDTQAGASNYDFAYADTRKWVIDGIIDYIAPQVYWPFAREVARYDVITQWWADTVSGTGTALYIGMALYKVGTASETEPDWTVEGGVPEITRQLDLNDSLTEVSGCMLFRHMFLRASQTQQVVDYLKLRWADV”, the “soluble on expression in E. coli” value is “not soluble”.
The value for “MSDGERVLKIPVEYFEDGWKKGEAVITKDAISFAGKTIRFKEIQDLERLKHEGRDAIRIKKDADYFIDFGSRQAQIFRYLAFNLKSDRFAVYFLSPATRGGVVVSDSKWEKGYLSITDEALWFLSSSKQIRISIQNLGSVEKDIRTVGKKQRVVLVVTHVENGEVITSFVLCPETTMDMLQEYIQNFIEKSKPKEKLSEVEEQILTMVYTGVDSVSVESILGVTTEELNKMYDRLVNLGLARVVKIRKEIELTPRGVALVSEIMKKAAR” was “not soluble”; that for “ETVIMKYLLPTAAAGLLLLAAQPAMAQVKLQQSGAELVRSGTSVKLSCTASGFNIKDSYMHWLRQGPEQGLEWIGWIDPENGDTEYAPKFQGKATFTTDTSSNTAYLQLSSLTSEDTAVYYCNEGTPTGPYYFDYWGQGTTVTVSSGGGGSGGGGSGGGGSENVLTQSPAIMSASPGEKVTITCSASSSVSYMHWFQQKPGTSPKLWIYSTSNLASGVPARFSGSGSGTSYSLTISRMEAEDAATYYCQQRSSYPLTFGAGTKLELKRAAAEQKLISEEDLN” was “soluble”; that for “GPGSMFHNSYQAGFLSILYSIGSKPLQIWDSQVRNGHVKRITDEDIQSSVLEIMGSNVSTCYIVCPANPKQTLGIKLPFLVMIIKNMKKYFSFEVTILDDKNMRRRFRASNYQSTTKVKPFICTMPMRLDEGWNQIQFNLSDFTRRAYGTNYVETLRVQVHANCRIRRLYFSDRLYAEEELPPEFKLFLPIAQQPPAAAAAEQRDIEAADVPQAASAAQ” was “soluble”.
Regarding “SQSPNPNNPAEYCSTIPPLQQAQASGALSSPPPTVMVPVGV”, the “soluble on expression in E. coli” value was “soluble”.

The values above are taken from the DeepSol protein solubility set.
